Results on two substances are retold here after article doi:10.1101/2024.01.22.576614.

Read-outs that look alike come from different tables or passages of the source.

Holding throughout (test): two-hybrid
For assay [1], the target named is cAMP-binding transcriptional regulator Clr (Sinorhizobium meliloti).
Assay [2] addresses Leu zipper (Zip).
The target of assay [3] is Leu zipper (Zip). The source holds these as a separate data set.

Chain of Leu zipper (Zip) (P03069 whole entry): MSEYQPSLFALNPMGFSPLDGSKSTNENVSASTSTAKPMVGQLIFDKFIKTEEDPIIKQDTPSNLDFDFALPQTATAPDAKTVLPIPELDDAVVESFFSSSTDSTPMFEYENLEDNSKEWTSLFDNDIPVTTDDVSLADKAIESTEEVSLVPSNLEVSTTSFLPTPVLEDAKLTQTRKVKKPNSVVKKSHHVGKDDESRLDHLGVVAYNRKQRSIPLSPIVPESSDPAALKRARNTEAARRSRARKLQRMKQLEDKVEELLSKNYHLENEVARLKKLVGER

“LysR-type transcriptional regulator Smc01817 (natural protein)” came in with a BACTH β-galactosidase activity in assay [1] of 460 MU.

In the case of Leu zipper (Zip) (domain or fragment), the BACTH β-galactosidase activity with Leu zipper (Zip) [2] was 1640 Miller-Units; with Leu zipper (Zip) [3], 1370 Miller-Units.
